Results on one molecule are retold here after article PMC2857095 (The Journal of Biological Chemistry, 2010).

For the assay, the target named is T1, DNA mismatch repair protein MutS, wild type (E. coli, UniProt P23909 1-853).
T1 sequence (looked up): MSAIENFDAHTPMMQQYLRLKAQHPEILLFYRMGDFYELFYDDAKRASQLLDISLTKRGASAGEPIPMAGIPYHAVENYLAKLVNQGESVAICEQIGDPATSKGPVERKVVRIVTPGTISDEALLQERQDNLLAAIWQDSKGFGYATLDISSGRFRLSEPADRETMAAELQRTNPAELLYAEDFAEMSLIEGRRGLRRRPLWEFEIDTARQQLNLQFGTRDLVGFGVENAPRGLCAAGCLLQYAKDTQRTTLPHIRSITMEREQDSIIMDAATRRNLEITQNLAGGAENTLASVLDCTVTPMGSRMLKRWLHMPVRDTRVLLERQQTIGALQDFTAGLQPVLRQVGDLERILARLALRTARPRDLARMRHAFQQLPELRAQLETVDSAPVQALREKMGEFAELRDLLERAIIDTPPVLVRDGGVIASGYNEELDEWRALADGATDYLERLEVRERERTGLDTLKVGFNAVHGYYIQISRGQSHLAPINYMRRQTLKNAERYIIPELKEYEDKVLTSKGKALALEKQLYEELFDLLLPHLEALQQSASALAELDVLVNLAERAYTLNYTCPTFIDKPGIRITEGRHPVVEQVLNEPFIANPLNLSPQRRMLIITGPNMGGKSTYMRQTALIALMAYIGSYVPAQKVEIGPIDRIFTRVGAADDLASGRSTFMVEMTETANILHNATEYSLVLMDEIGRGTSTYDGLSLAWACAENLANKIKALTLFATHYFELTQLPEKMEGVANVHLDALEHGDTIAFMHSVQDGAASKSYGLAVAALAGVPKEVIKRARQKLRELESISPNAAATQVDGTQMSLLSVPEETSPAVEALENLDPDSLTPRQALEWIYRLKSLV
Description: SPR.

B1: MutL (natural protein, UniProt P23367 1-615, looked up)
chain: MPIQVLPPQLANQIAAGEVVERPASVVKELVENSLDAGATRIDIDIERGGAKLIRIRDNGCGIKKDELALALARHATSKIASLDDLEAIISLGFRGEALASISSVSRLTLTSRTAEQQEAWQAYAEGRDMNVTVKPAAHPVGTTLEVLDLFYNTPARRKFLRTEKTEFNHIDEIIRRIALARFDVTINLSHNGKIVRQYRAVPEGGQKERRLGAICGTAFLEQALAIEWQHGDLTLRGWVADPNHTTPALAEIQYCYVNGRMMRDRLINHAIRQACEDKLGADQQPAFVLYLEIDPHQVDVNVHPAKHEVRFHQSRLVHDFIYQGVLSVLQQQLETPLPLDDEPQPAPRSIPENRVAAGRNHFAEPAAREPVAPRYTPAPASGSRPAAPWPNAQPGYQKQQGEVYRQLLQTPAPMQKLKAPEPQEPALAANSQSFGRVLTIVHSDCALLERDGNISLLSLPVAERWLRQAQLTPGEAPVCAQPLLIPLRLKVSAEEKSALEKAQSALAELGIDFQSDAQHVTIRAVPLPLRQQNLQILIPELIGYLAKQSVFEPGNIAQWIARNLMSEHAQWSMAQAITLLADVERLCPQLVKTPPGGLLQSVDLHPAIKALKDE
Take B1: the binding result is “binds”.
